From paper PMC4559223 (Journal of molecular biology, 2008) come the findings set out here.

Data set [1] deals with the molecule itself. Put plainly: native gel or EMSA. For orientation: Mobility shift assays separate free from complexed probe on a gel.
Data set [2] deals with the molecule itself. Put plainly: crystal structure.

B1: mouse GATA3 double zinc finger fragment (amino acids 260-370) (domain or fragment)
chain: not shown
Take B1: the binding result in data set [1] is reported as “binds”.

B2: mouse GATA3 C-terminal zinc finger (amino acid residues 308-370) (domain or fragment, UniProt P23772 308-370, looked up)
chain: SAARRAGTSCANCQTTTTTLWRRNANGDPVCNACGLYYKLHNINRPLTMKKEGIQTRNRKMSS
With B2, in data set [2], the binding result is recorded as “binds”.
